Consider 17 molecules from article PMC4240464 (The Febs Journal, 2013).

Sequences and labels used below:
T1: CCL25 (human, UniProt O15444 24-150)
T1 sequence: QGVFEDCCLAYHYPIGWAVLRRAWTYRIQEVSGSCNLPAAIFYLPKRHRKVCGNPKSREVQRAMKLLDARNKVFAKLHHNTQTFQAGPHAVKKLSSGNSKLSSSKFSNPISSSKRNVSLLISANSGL

T2: CCL21 (human, UniProt O00585 24-134)
T2 sequence: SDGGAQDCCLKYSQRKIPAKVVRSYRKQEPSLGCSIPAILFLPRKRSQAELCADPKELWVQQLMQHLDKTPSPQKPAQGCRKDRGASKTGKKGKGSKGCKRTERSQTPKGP

T3: Evasin-4 (untagged recombinant) (Rhipicephalus sanguineus, UniProt P0C8E9 24-127, appears to be highly glycosylated (six putative N-glycosylation sites))
T3 sequence: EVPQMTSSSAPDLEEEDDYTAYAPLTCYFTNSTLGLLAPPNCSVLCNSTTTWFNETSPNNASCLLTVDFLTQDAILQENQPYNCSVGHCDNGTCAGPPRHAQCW

B1: CCL8 (ligand)
chain: QPDSVSIPITCCFNVINRKIPIQRLESYTRITNIQCPKEAVIFKTKRGKEVCADPKERWVRDSMKHLDQIFQNLKP
B2: CCL22 (ligand)
chain: GPYGANMEDSVCCRDYVRYRLPLRVVKHFYWTSDSCPRPGVVLLTFRDKEICADPRVPWVKMILNKLSQ
B3: CCL11 (ligand)
chain: not shown
B4: CCL23 (ligand)
chain: RVTKDAETEFMMSKLPLENPVLLDRFHATSADCCISYTPRSIPCSLLESYFETNSECSKPGVIFLTKKGRRFCANPSDKQVQVCMRMLKLDTRIKTRKN
B5: CCL7 (ligand)
chain: not shown
B6: CCL5 E26A (ligand)
chain: SPYSSDTTPCCFAYIARPLPRAHIKAYFYTSGKCSNPAVVFVTRKNRQVCANPEKKWVREYINSLEMS
B7: CCL1 (ligand)
chain: KSMQVPFSRCCFSFAEQEIPLRAILCYRNTSSICSNEGLIFKLKRGKEACALDTVGWVQRHRKMLRHCPSKRK
B8: CCL3 (ligand)
chain: SLAADTPTACCFSYTSRQIPQNFIADYFETSSQCSKPGVIFLTKRSRQVCADPSEEWVQKYVSDLELSA
B9: CCL26 (ligand)
chain: TRGSDISKTCCFQYSHKPLPWTWVRSYEFTSNSCSQRAVIFTTKRGKKVCTHPRKKWVQKYISLLKTPKQL
B10: CCL19 (ligand)
chain: GTNDAEDCCLSVTQKPIPGYIVRNFHYLLIKDGCRVPAVVFTTLRGRQLCAPPDQPWVERIIQRLQRTSAKMKRRSS
B11: CCL17 (ligand)
chain: ARGTNVGRECCLEYFKGAIPLRKLKTWYQTSEDCSRDAIVFVTVQGRAICSDPNNKRVKNAVKYLQSLERS
B12: CCL16 (ligand)
chain: QPKVPEWVNTPSTCCLKYYEKVLPRRLVVGYRKALNCHLPAIIFVTKRNREVCTNPNDDWVQEYIKDPNLPLLPTRNLSTVKIITAKNGQPQLLNSQ
B13: CCL15 (ligand)
chain: QFTNDAETELMMSKLPLENPVVLNSFHFAADCCTSYISQSIPCSLMKSYFETSSECSKPGVIFLTKKGRQVCAKPSGPGVQDCMKKLKPYSI
B14: CCL24 (ligand)
chain: VVIPSPCCMFFVSKRIPENRVVSYQLSSRSTCLKAGVIFTTKKGQQFCGDPKQEWVQRYMKNLDAKQKKASPRARAVAVKGPVQRYPGNQTTC
B15: CCL14 (ligand)
chain: TKTESSSRGPYHPSECCFTYTTYKIPRQRIMDYYETNSQCSKPGIVFITKRGHSVCTNPSDKWVQDYIKDMKEN
B16: CCL18 (ligand)
chain: AQVGTNKELCCLVYTSWQIPQKFIVDYSETSPQCPKPGVILLTKRGRQICADPNKKWVQKYISDLKLNA
B17: 6His–Evasin-4 (natural protein)
chain: T3 sequence

One test addresses B17. Description: SPR. On the technique in general: Surface plasmon resonance follows binding to a sensor surface in real time, without labels.
Turning to B1, the Kd (in general, the constant that tells how readily two partners part at equilibrium) amounted to 250 pM; the off-rate (koff) (usually the rate constant with which the complex falls apart) came to 0.00176 s⁻¹; the kon (usually the second-order rate constant of association) came to 7.11e+06 M⁻¹ s⁻¹.

On to B2, for which binding was characterised by a dissociation constant (Kd) of 430 pM, the koff was 0.0038 s⁻¹ and the on-rate (kon) is 8.9e+06 M⁻¹ s⁻¹.

B3 had a dissociation constant Kd of 340 pM, a koff of 0.00435 s⁻¹ and a kon of 1.29e+07 M⁻¹ s⁻¹.

As to B4, the dissociation constant Kd is 4430 pM, the koff came to 3e-05 s⁻¹ and the kon was determined as 6000 M⁻¹ s⁻¹.

As to B5, the affinity, expressed as Kd, was 700 pM; the koff came to 0.00988 s⁻¹; the kon was 1.41e+07 M⁻¹ s⁻¹.

B6 returned a Kd of 90 pM, a koff of 0.00223 s⁻¹ and a kon of 2.6e+07 M⁻¹ s⁻¹.

B7 gave a Kd of 200 pM, a dissociation rate constant (koff) of 0.00326 s⁻¹ and a kon of 1.66e+07 M⁻¹ s⁻¹.

B8 came in with a Kd of 60 pM, an off-rate (koff) of 0.00089 s⁻¹ and an association rate constant (kon) of 1.38e+07 M⁻¹ s⁻¹.

On to B9, for which the affinity, expressed as Kd, was 880 pM; the koff was 0.00015 s⁻¹; the kon worked out at 170000 M⁻¹ s⁻¹.

Molecule B10 yielded an equilibrium dissociation constant (Kd) of 140 pM, a koff of 0.00035 s⁻¹ and an association rate constant (kon) of 2.57e+06 M⁻¹ s⁻¹.

Regarding B11, the Kd was 610 pM, the koff amounted to 0.0107 s⁻¹ and the on-rate (kon) was 1.76e+07 M⁻¹ s⁻¹.

As to B12, the Kd was determined as 260 pM, the koff worked out at 0.00306 s⁻¹ and the on-rate (kon) turned out to be 1.2e+07 M⁻¹ s⁻¹.

B13: the dissociation constant Kd turned out to be 2310 pM, the off-rate (koff) was found to be 0.0936 s⁻¹ and the on-rate constant (kon) worked out at 4.05e+07 M⁻¹ s⁻¹.

With B14, the Kd is 410 pM, the off-rate (koff) turned out to be 0.0125 s⁻¹ and the on-rate (kon) amounted to 3.05e+07 M⁻¹ s⁻¹.

As to B15, the dissociation constant (Kd) amounted to 140 pM, the koff was 0.00148 s⁻¹ and the kon came out at 1.04e+07 M⁻¹ s⁻¹.

B16 displayed a Kd of 30 pM, a koff of 0.00053 s⁻¹ and a kon of 1.96e+07 M⁻¹ s⁻¹.

The next test deals with T1, CCL25. Description: SPR.
B17 returned a Kd of 69600 pM, a dissociation rate constant (koff) of 0.00054 s⁻¹ and a kon of 8000 M⁻¹ s⁻¹.

The target in the next test is T2, CCL21. Description: SPR.
B17 gave an equilibrium dissociation constant (Kd) of 10 pM, a koff of 8e-05 s⁻¹ and a kon of 1.1e+07 M⁻¹ s⁻¹.

The target of another test is B17. Description: SPR. The source holds these as a separate data set.
For the molecule B1, the Kd was found to be 220 pM.

For B3, the Kd is 69 pM.

The molecule B4 displayed a Kd of 10800 pM.

Take B5: the Kd was 45 pM.

Molecule B6 had a Kd of 2 pM.

With B7, the dissociation constant Kd was 1810 pM.

Turning to B8, the Kd is 393 pM.

For the molecule B9, binding was characterised by a dissociation constant (Kd) of 11400 pM.

Take B13: the Kd was 199 pM.

On to B14, for which the affinity, expressed as Kd, was 142000 pM.

With B16, binding was put at a Kd of 198 pM.

Another test deals with T3, Evasin-4 (untagged recombinant). Briefly: SPR.
For B3, the Kd was 128000 pM.

Take B4: the Kd amounted to 14100 pM.

With B6, the Kd turned out to be 194000 pM.

B7: the dissociation constant (Kd) was 112000 pM.

With B8, the dissociation constant (Kd) is 33100 pM.

For B11, the Kd was determined as 126000 pM.

In the case of B13, the Kd stood at 132000 pM.
